Laboratory results reported in publication PMC6338448 (Cell reports, 2018).
Read-outs that look alike come from different tables or passages of the source. Blank lines part the entries; values can stand above or below the binder they belong to.

Assays:
[1] = biological target: T1, C-terminally His-tagged soluble RECK (sRECK-His) (human, UniProt O95980 23-942); experiment: cross-linking
T1 sequence (looked up): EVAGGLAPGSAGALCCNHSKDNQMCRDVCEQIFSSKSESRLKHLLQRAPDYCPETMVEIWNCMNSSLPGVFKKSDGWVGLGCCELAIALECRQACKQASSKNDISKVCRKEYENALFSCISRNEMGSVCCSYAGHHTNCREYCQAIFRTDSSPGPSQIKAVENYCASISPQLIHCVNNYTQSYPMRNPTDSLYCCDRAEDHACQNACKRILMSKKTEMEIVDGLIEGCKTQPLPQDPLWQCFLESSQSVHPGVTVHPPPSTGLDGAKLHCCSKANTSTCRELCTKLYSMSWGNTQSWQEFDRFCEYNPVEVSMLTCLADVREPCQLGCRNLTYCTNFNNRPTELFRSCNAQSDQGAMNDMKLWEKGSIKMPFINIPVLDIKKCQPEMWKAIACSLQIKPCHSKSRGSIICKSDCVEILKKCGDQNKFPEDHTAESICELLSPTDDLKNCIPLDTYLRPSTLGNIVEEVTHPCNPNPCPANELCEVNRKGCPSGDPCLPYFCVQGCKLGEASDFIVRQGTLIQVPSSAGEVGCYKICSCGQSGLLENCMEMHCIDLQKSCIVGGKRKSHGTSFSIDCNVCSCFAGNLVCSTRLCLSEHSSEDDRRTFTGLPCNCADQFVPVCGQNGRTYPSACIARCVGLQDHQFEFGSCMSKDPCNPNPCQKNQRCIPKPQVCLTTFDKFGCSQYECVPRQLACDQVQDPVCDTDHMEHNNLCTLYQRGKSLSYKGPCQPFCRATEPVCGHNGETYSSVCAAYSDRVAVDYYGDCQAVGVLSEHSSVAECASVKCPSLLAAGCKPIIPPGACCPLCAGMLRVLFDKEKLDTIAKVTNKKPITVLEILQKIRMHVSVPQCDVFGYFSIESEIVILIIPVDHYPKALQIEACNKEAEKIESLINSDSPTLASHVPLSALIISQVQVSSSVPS

[2] = biological target: T2, recombinant soluble (ΔGPI) Fc-tagged RECK (sRECK-Fc) (human, UniProt O95980 23-942); experiment: pull-down
T2 sequence (looked up): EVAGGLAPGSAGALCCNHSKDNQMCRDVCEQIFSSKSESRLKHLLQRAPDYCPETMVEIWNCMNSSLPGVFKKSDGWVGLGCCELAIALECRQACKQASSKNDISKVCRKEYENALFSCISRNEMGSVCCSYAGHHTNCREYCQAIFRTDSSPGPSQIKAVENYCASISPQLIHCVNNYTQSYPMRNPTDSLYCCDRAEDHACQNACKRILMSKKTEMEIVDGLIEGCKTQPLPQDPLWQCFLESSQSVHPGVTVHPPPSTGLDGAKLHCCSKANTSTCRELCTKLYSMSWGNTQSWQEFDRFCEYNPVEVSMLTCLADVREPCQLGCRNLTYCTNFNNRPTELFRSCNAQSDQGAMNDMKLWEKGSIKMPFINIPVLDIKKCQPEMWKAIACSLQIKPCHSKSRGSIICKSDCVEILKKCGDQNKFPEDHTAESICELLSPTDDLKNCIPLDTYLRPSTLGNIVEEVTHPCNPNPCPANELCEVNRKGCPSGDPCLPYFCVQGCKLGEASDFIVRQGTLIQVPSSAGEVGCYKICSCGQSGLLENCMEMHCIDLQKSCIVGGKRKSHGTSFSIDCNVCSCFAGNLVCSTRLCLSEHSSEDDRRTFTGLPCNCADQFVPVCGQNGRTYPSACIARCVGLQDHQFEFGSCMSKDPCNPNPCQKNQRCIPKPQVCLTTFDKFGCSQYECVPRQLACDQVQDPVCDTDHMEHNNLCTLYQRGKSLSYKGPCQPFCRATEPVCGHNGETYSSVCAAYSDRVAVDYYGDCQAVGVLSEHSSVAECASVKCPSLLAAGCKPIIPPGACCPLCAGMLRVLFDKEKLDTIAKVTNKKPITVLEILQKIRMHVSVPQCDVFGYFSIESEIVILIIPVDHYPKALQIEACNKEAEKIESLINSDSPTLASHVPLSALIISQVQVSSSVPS

[3] = biological target: T2, recombinant soluble (ΔGPI) Fc-tagged …; experiment: pull-down; remark: listed apart in the source

stoichiometry N [1]: 1
B1: WNT7A (co-expressed with sRECK-His in Expi293F cells) (ligand, human, UniProt O00755 32-349, looked up)
chain: LGASIICNKIPGLAPRQRAICQSRPDAIIVIGEGSQMGLDECQFQFRNGRWNCSALGERTVFGKELKVGSREAAFTYAIIAAGVAHAITAACTQGNLSDCGCDKEKQGQYHRDEGWKWGGCSADIRYGIGFAKVFVDAREIKQNARTLMNLHNNEAGRKILEENMKLECKCHGVSGSCTTKTCWTTLPQFRELGYVLKDKYNEAVHVEPVRASRNKRPTFLKIKKPLSYRKPMDTDLVYIEKSPNYCEEDPVTGSVGTQGRACNKTAPQASGCDLMCCGRGYNTHQYARVWQCNCKFHWCCYVKCNTCSERTEMYTCK

binding result [2]: binds
B2: sGPR124 ΔHRM (Δaa 349 - 426) (domain or fragment, human)
chain: APGCPLSIRSCKCSGERPKGLSGGVPGPARRRVVCSGGDLPEPPEPGLLPNGTVTLLLSNNKITGLRNGSFLGLSLLEKLDLRNNIISTVQPGAFLGLGELKRLDLSNNRIGCLTSETFQGLPRLLRLNISGNIFSSLQPGVFDELPALKVVDLGTEFLTCDCHLRWLLPWAQNRSLQLSEHTLCAYPSALHAQALGSLQEAQLCCEGALELHTHHLIPSLRQVVFQGDRLPFQCSASYLGNDTRIRWYHNRAPVEGDEQAGILLAESLIHDCTFITSELTLSHIGVWASGEWECTVSMAQGNASKKVEIVVLETLYTFVLMPINASNALTLAHQLRVYTAEAASFSDMMDVVYVAQMIQKFLGYVDQIKELVEVMVDMASNLMLVDEHLLWLAQREDKACSRIVGALERIGGAALSPHAQHISVNARNVALEAYLIKPHSYVGLTCTAFQRREGGVPGTRPGSPGQNPPPEPEPPADQQLRFRCTTGRPNVSLSSFHIKNSVALASIQLPPSLFSSLPAALAPPVPPDCTLQLLVFRNGRLFHSHSNTSRPGAAGPGKRRGVATPVIFAGTSGCGVGNLTEPVAVSLRHWAEGAEPVAAWWSQEGPGEAGGWTSEGCQLRSSQPNVSALHCQHLGNVAVLMELDGGGS

binding result [3]: binds
B3: recombinant soluble GPR124 ECD (sGPR124), C-terminally His-tagged (domain or fragment)
chain: APGCPLSIRSCKCSGERPKGLSGGVPGPARRRVVCSGGDLPEPPEPGLLPNGTVTLLLSNNKITGLRNGSFLGLSLLEKLDLRNNIISTVQPGAFLGLGELKRLDLSNNRIGCLTSETFQGLPRLLRLNISGNIFSSLQPGVFDELPALKVVDLGTEFLTCDCHLRWLLPWAQNRSLQLSEHTLCAYPSALHAQALGSLQEAQLCCEGALELHTHHLIPSLRQVVFQGDRLPFQCSASYLGNDTRIRWYHNRAPVEGDEQAGILLAESLIHDCTFITSELTLSHIGVWASGEWECTVSMAQGNASKKVEIVVLETSASYCPAERVANNRGDFRWPRTLAGITAYQSCLQYPFTSVPLGGGAPGTRASRRCDRAGRWEPGDYSHCLYTNDITRVLYTFVLMPINASNALTLAHQLRVYTAEAASFSDMMDVVYVAQMIQKFLGYVDQIKELVEVMVDMASNLMLVDEHLLWLAQREDKACSRIVGALERIGGAALSPHAQHISVNARNVALEAYLIKPHSYVGLTCTAFQRREGGVPGTRPGSPGQNPPPEPEPPADQQLRFRCTTGRPNVSLSSFHIKNSVALASIQLPPSLFSSLPAALAPPVPPDCTLQLLVFRNGRLFHSHSNTSRPGAAGPGKRRGVATPVIFAGTSGCGVGNLTEPVAVSLRHWAEGAEPVAAWWSQEGPGEAGGWTSEGCQLRSSQPNVSALHCQHLGNVAVLMELDGGGS
